According to patent EP2246362B1, “Polymer conjugates of mutated neublastin” (Biogen Idec MA Inc., priority 2003, dated 2004):

Experiments:
[1] = target: T1, c-Ret on NB41A3-mRL3 cells (UniProt P35546 29-1115, limits assumed); experiment: cell-based or functional assay
[2] = target: T1, c-Ret on NB41A3-mRL3 cells; experiment: cell-based or functional assay; remark: listed apart in the source

T1 sequence (P35546 29-1115 limits assumed): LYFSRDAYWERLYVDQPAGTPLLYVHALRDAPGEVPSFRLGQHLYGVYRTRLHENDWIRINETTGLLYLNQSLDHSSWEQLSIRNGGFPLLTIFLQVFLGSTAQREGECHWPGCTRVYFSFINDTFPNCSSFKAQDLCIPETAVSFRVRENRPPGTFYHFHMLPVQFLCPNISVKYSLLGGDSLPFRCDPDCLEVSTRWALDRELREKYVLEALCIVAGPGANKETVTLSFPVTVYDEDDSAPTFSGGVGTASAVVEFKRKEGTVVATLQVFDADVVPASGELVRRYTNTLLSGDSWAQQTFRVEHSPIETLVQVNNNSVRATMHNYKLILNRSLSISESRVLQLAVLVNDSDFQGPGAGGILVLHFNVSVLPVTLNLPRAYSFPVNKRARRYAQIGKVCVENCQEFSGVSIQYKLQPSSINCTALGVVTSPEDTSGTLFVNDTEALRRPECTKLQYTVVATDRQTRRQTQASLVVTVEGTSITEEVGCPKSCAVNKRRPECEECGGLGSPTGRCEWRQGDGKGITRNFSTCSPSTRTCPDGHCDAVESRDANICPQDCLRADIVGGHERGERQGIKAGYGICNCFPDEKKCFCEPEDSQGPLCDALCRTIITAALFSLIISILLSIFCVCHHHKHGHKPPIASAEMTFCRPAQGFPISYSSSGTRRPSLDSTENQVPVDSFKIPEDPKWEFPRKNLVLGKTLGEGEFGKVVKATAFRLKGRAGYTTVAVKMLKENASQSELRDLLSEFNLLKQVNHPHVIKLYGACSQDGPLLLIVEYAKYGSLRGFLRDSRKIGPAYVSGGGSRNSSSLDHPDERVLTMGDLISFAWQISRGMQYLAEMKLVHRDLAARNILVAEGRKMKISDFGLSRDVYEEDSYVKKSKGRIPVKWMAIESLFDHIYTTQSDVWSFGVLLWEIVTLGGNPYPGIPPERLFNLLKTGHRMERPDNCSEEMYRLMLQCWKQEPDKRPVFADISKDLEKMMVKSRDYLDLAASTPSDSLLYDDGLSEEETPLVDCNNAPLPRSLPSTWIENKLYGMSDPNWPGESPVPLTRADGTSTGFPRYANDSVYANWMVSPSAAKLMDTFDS

B1: 3(,4) X 10 kDa PEG NBN106-N95K (ligand)
chain: ARATDARGCRLRSQLVPVSALGLGHSSDELIRFRFCSGSCRRARSPHDLSLASLLGAGALRSPPGSRPISQPCCRPTRYEAVSFMDVKSTWRTVDHLSATACGCLG
modifications: average of 3.3 10 kDa PEG (SPA-PEG) per dimer: on both amino-terminal amino acids and on one or both Lys95 (PEGylated amino acids 1,1,95 (,95))
- KIRA: ∼EC50 [1]: ~1.6 nM
- KIRA: ∼Max Efficacy vs WT [1]: ~90%
- specific activity in the KIRA ELISA [2]: 10 nM

B2: 4 X 10 kDa PEG NBN106-N95K (ligand)
chain: ARATDARGCRLRSQLVPVSALGLGHSSDELIRFRFCSGSCRRARSPHDLSLASLLGAGALRSPPGSRPISQPCCRPTRYEAVSFMDVKSTWRTVDHLSATACGCLG
modifications: 10 kDa PEG on the amino-terminal amino acid and on Lys95 of each chain (PEGylated amino acids 1,1,95,95)
- KIRA: ∼EC50 [1]: ~11 nM
- KIRA: ∼Max Efficacy vs WT [1]: > 80%
- KIRA ELISA (potency in activating Ret, fold less than wild-type NBN113) [2]: ~10 fold

B3: wild-type rat neublastin (NBN113), E. coli derived (ligand)
chain: AGTRSSRARATDARGCRLRSQLVPVSALGLGHSSDELIRFRFCSGSCRRARSPHDLSLASLLGAGALRSPPGSRPISQPCCRPTRYEAVSFMDVNSTWRTVDHLSATACGCLG
- KIRA: ∼Max Efficacy vs WT [1]: ~100%
- IC50 in the KIRA ELISA [2]: 3 to 6 nM
- specific activity in the KIRA ELISA [2]: ~10 nM
